Where two headings read alike, the source gives them in different places.
B1: hu40E9-L2H4 (antibody, V domains shown)
VH: EVQLVQSGAEVKKPGSSVKVSCKASGYTFSSYVIHWVRQAPGQGLEWIGYINPYNDVIKYNEKFKGRATLTSDKSTSTAYMELSSLRSEDTAVYYCARDSYYSYDGFAYWGQGTLVTVSS
VL: EIVLTQSPDFQSVTPKEKVTITCSASSSVSYMHWYQQKPDQSPKRLIYDTSKLASGVPSRFSGSGSGTDFTLTINSLEAEDAATYYCQQWSSNPPTFGGGTKVEIK
notes: humanized 40-C12-C10-E9
B2: hu40E9-L3H1 (antibody, V domains shown)
VH: EVQLVQSGAEVKKPGSSVKVSCKASGGTFSSYVIHWVRQAPGQGLEWMGYINPYNDVIKYNEKFKGRVTITADKSTSTAYMELSSLRSEDTAVYYCARDSYYSYDGFAYWGQGTLVTVSS
VL: EIVLTQSPDFQSVTPKEKVTITCSASSSVSYMHWYQQKPDQSPKRWIYDTSKLASGVPSRFSGSGSGTDYTLTINSLEAEDAATYYCQQWSSNPPTFGGGTKVEIK
notes: humanized 40-C12-C10-E9
B3: hu40E9-L3H2 (antibody, V domains shown)
VH: EVQLVQSGAEVKKPGSSVKVSCKASGYTFSSYVIHWVRQAPGQGLEWMGYINPYNDVIKYNEKFKGRVTITADKSTSTAYMELSSLRSEDTAVYYCARDSYYSYDGFAYWGQGTLVTVSS
VL: EIVLTQSPDFQSVTPKEKVTITCSASSSVSYMHWYQQKPDQSPKRWIYDTSKLASGVPSRFSGSGSGTDYTLTINSLEAEDAATYYCQQWSSNPPTFGGGTKVEIK
notes: humanized 40-C12-C10-E9
B4: hu40E9-L2H9 (antibody, V domains shown)
VH: EVQLVQSGAEVKKPGSSVKVSCKASGYTFSSYVIHWVRQAPGQGLEWMGYINPYSDVIKYNEKFKGRVTLTSDKSTSTAYMELSSLRSEDTAVYYCARESFYSYDGFAYWGQGTLVTVSS
VL: EIVLTQSPDFQSVTPKEKVTITCSASSSVSYMHWYQQKPDQSPKRLIYDTSKLASGVPSRFSGSGSGTDFTLTINSLEAEDAATYYCQQWSSNPPTFGGGTKVEIK
B5: hu40E9-L2H15 (antibody, V domains shown)
VH: EVQLVQSGAEVKKPGSSVKVSCKASGYTFSSYVIHWVRQAPGQGLEWMGYINPYNDVIKYNEKFKGRVTLTSDKSTSTAYMELSSLRSEDTAVYYCARGSYYSYDGFAYWGQGTLVTVSS
VL: EIVLTQSPDFQSVTPKEKVTITCSASSSVSYMHWYQQKPDQSPKRLIYDTSKLASGVPSRFSGSGSGTDFTLTINSLEAEDAATYYCQQWSSNPPTFGGGTKVEIK
B6: hu40E9-L2H8 (antibody, V domains shown)
VH: EVQLVQSGAEVKKPGSSVKVSCKASGYTFSSYVIHWVRQAPGQGLEWMGYINPGNDVIKYNEKFKGRVTLTSDKSTSTAYMELSSLRSEDTAVYYCARESYSSYDGFAYWGQGTLVTVSS
VL: EIVLTQSPDFQSVTPKEKVTITCSASSSVSYMHWYQQKPDQSPKRLIYDTSKLASGVPSRFSGSGSGTDFTLTINSLEAEDAATYYCQQWSSNPPTFGGGTKVEIK
B7: hu40E9-L2H10 (antibody, V domains shown)
VH: EVQLVQSGAEVKKPGSSVKVSCKASGYTFSSYVIHWVRQAPGQGLEWMGYINPYNDVIKYNEKFKGRVTLTSDKSTSTAYMELSSLRSEDTAVYYCARDSYYSYEAFAYWGQGTLVTVSS
VL: EIVLTQSPDFQSVTPKEKVTITCSASSSVSYMHWYQQKPDQSPKRLIYDTSKLASGVPSRFSGSGSGTDFTLTINSLEAEDAATYYCQQWSSNPPTFGGGTKVEIK
B8: hu40E9-L2H5 (antibody, V domains shown)
VH: EVQLVQSGAEVKKPGSSVKVSCKASGYTFSSYVIHWVRQAPGQGLEWMGYINPGSGVIKYNEKFKGRVTLTSDKSTSTAYMELSSLRSEDTAVYYCARDSYYSYDGFAYWGQGTLVTVSS
VL: EIVLTQSPDFQSVTPKEKVTITCSASSSVSYMHWYQQKPDQSPKRLIYDTSKLASGVPSRFSGSGSGTDFTLTINSLEAEDAATYYCQQWSSNPPTFGGGTKVEIK
B9: hu40E9-L2H11 (antibody, V domains shown)
VH: EVQLVQSGAEVKKPGSSVKVSCKASGYTFSSYVIHWVRQAPGQGLEWMGYINPYNDVIKYNEKFKGRVTLTSDKSTSTAYMELSSLRSEDTAVYYCARDSYYSYRAFAYWGQGTLVTVSS
VL: EIVLTQSPDFQSVTPKEKVTITCSASSSVSYMHWYQQKPDQSPKRLIYDTSKLASGVPSRFSGSGSGTDFTLTINSLEAEDAATYYCQQWSSNPPTFGGGTKVEIK
B10: hu40E9-L2H6 (antibody, V domains shown)
VH: EVQLVQSGAEVKKPGSSVKVSCKASGYTFSSYVIHWVRQAPGQGLEWMGYINPYNDVIKYNEKFKGRVTLTSDKSTSTAYMELSSLRSEDTAVYYCARESFSSYDGFAYWGQGTLVTVSS
VL: EIVLTQSPDFQSVTPKEKVTITCSASSSVSYMHWYQQKPDQSPKRLIYDTSKLASGVPSRFSGSGSGTDFTLTINSLEAEDAATYYCQQWSSNPPTFGGGTKVEIK
B11: hu40E9-L3H4 (antibody, V domains shown)
VH: EVQLVQSGAEVKKPGSSVKVSCKASGYTFSSYVIHWVRQAPGQGLEWIGYINPYNDVIKYNEKFKGRATLTSDKSTSTAYMELSSLRSEDTAVYYCARDSYYSYDGFAYWGQGTLVTVSS
VL: EIVLTQSPDFQSVTPKEKVTITCSASSSVSYMHWYQQKPDQSPKRWIYDTSKLASGVPSRFSGSGSGTDYTLTINSLEAEDAATYYCQQWSSNPPTFGGGTKVEIK
notes: humanized 40-C12-C10-E9
B12: hu40E9-L2H12 (antibody, V domains shown)
VH: EVQLVQSGAEVKKPGSSVKVSCKASGYTFSSYVIHWVRQAPGQGLEWMGYINPYNDVIKYNEKFKGRVTLTSDKSTSTAYMELSSLRSEDTAVYYCARDDYYSYDGFAYWGQGTLVTVSS
VL: EIVLTQSPDFQSVTPKEKVTITCSASSSVSYMHWYQQKPDQSPKRLIYDTSKLASGVPSRFSGSGSGTDFTLTINSLEAEDAATYYCQQWSSNPPTFGGGTKVEIK
B13: hu40E9-L2H7 (antibody, V domains shown)
VH: EVQLVQSGAEVKKPGSSVKVSCKASGYTFSSYVIHWVRQAPGQGLEWMGYINPGNGVIKYNEKFKGRVTLTSDKSTSTAYMELSSLRSEDTAVYYCARDSYSSYDGFAYWGQGTLVTVSS
VL: EIVLTQSPDFQSVTPKEKVTITCSASSSVSYMHWYQQKPDQSPKRLIYDTSKLASGVPSRFSGSGSGTDFTLTINSLEAEDAATYYCQQWSSNPPTFGGGTKVEIK
B14: hu40E9-L2H14 (antibody, V domains shown)
VH: EVQLVQSGAEVKKPGSSVKVSCKASGYTFSSYVIHWVRQAPGQGLEWMGYINPYNDVIKYNEKFKGRVTLTSDKSTSTAYMELSSLRSEDTAVYYCARESYYSYDGFAYWGQGTLVTVSS
VL: EIVLTQSPDFQSVTPKEKVTITCSASSSVSYMHWYQQKPDQSPKRLIYDTSKLASGVPSRFSGSGSGTDFTLTINSLEAEDAATYYCQQWSSNPPTFGGGTKVEIK
B15: hu40E9-L2H16 (antibody, V domains shown)
VH: EVQLVQSGAEVKKPGSSVKVSCKASGYTFSDYVIHWVRQAPGQGLEWMGYINPYNDVIKYNEKFKGRVTLTSDKSTSTAYMELSSLRSEDTAVYYCARDSYYSYDGFAYWGQGTLVTVSS
VL: EIVLTQSPDFQSVTPKEKVTITCSASSSVSYMHWYQQKPDQSPKRLIYDTSKLASGVPSRFSGSGSGTDFTLTINSLEAEDAATYYCQQWSSNPPTFGGGTKVEIK
B16: hu40E9-L2H13 (antibody, V domains shown)
VH: EVQLVQSGAEVKKPGSSVKVSCKASGYTFSSYVIHWVRQAPGQGLEWMGYINPYNDVIKYNEKFKGRVTLTSDKSTSTAYMELSSLRSEDTAVYYCARDGYYSYDGFAYWGQGTLVTVSS
VL: EIVLTQSPDFQSVTPKEKVTITCSASSSVSYMHWYQQKPDQSPKRLIYDTSKLASGVPSRFSGSGSGTDFTLTINSLEAEDAATYYCQQWSSNPPTFGGGTKVEIK

Tests used:
[1] = biological target: T1, human CD3 (human, UniProt P07766 23-207; P04234 22-171; P09693 23-182); test: cell-based or functional assay
T1 sequence (P07766 23-207, chain 1 of 3): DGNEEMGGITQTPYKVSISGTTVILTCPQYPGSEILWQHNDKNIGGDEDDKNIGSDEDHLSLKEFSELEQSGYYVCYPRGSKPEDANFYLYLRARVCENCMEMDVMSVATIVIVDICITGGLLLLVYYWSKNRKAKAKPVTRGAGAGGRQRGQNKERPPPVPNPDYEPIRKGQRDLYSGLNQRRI
T1 sequence (P04234 22-171, chain 2 of 3): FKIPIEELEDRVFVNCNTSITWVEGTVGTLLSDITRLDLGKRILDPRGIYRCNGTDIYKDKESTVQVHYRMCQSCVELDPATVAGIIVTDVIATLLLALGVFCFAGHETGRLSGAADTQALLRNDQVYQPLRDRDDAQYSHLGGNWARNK
T1 sequence (P09693 23-182, chain 3 of 3): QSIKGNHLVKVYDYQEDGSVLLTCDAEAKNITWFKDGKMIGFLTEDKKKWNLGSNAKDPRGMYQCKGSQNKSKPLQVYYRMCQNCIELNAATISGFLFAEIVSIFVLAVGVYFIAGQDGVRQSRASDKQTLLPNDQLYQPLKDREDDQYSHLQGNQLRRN

[2] = biological target: T1, human CD3; test: FACS on Jurkat cells
[3] = biological target: T1, human CD3; test: cell-based or functional assay; remark: listed apart in the source
[4] = biological target: T1, human CD3; test: FACS on Jurkat cells; remark: listed apart in the source

Row | Binder | EC50_Fold change (Jurkat-NFAT-luciferase activation, normalized to ch40-C12-C10-E9) [1] | Top FACS signal_Fold change (Jurkat-NFAT-luciferase activation, normalized to ch40-C12-C10-E9) [1] | EC50 [2] | Top FACS signal [2] | EC50_Fold change (Jurkat-NFAT-luciferase activation, normalized to ch40-C12-C10-E9) [3] | Top signal_Fold change (Jurkat-NFAT-luciferase activation, normalized to ch40-C12-C10-E9) [3] | EC50 [4] | Top FACS signal [4]
1 | B1 | 0.8 fold | 0.89 fold | 0.86 nM | 1570 |  |  |  | 
2 | B2 | 1.33 fold | 0.97 fold | 0.75 nM | 1250 |  |  |  | 
3 | B3 | 0.57 fold | 0.73 fold | 0.52 nM | 1410 |  |  |  | 
4 | B4 |  |  |  |  | 2.49 fold | 0.87 fold | 0.56 nM | 1760
5 | B5 |  |  |  |  | 98.6 fold | 0.75 fold | 51.7 nM | 796
6 | B6 |  |  |  |  | 18.4 fold | 0.69 fold | 28 nM | 1240
7 | B7 |  |  |  |  | 12.6 fold | 1.01 fold | 2.55 nM | 1680
8 | B8 |  |  |  |  | 1.29 fold | 0.79 fold | 0.36 nM | 1920
9 | B9 |  |  |  |  | 2.97 fold | 0.85 fold | 5 nM | 2000
10 | B10 |  |  |  |  | 4.57 fold | 0.74 fold | 4.17 nM | 1260
11 | B11 | 0.61 fold | 0.64 fold | 0.49 nM | 1360 |  |  |  | 
12 | B12 |  |  |  |  | 21.3 fold | 0.73 fold | 72.9 nM | 850
13 | B13 |  |  |  |  | 1.18 fold | 0.77 fold | 0.66 nM | 2380
14 | B14 |  |  |  |  | 3.86 fold | 0.96 fold | 0.43 nM | 2020
15 | B15 |  |  |  |  | 6.18 fold | 1.35 fold | 1.27 nM | 2010
16 | B16 |  |  |  |  | 3.08 fold | 0.51 fold | 83.7 nM | 2050

— patent US20250223358A1 (ANTENGENE BIOLOGICS, published 2025)
